# T1: GST fusion of the FAT (focal adhesion targeting) domain of focal adhesion kinase, human FAK 892-1052 (human, UniProt Q05397 892-1052)
# T1 construct: focal adhesion kinase (FAK), human, FAT domain, residues 892-1052; Cloned into pGEX4T1; For the pull-down provided by Dr. M. K. Hoellerer; for bio-layer interferometry the same construct was synthesised (GeneArt) and made by the same procedure; also called GST-FAT; GST labeled FAT; source: E. coli BL21 (DE3), purified using GST-4B beads
# T1 sequence (looked up): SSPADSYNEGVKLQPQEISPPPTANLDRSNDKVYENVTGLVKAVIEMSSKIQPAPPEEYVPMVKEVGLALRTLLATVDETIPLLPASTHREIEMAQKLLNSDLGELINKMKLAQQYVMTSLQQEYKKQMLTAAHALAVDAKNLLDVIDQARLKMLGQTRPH
# B1: paxillin construct B2, expressed in E. coli for bio-layer interferometry (domain or fragment)
# chain: SSEALNGTILDPLDQWQPSSSRFIHQQPQSSSPVYGSSAKTSSVSNPQDSVGSPCSRVGEEEHVYSFPNKQKSAEPSPTVMSTSLGSNLSELDRLLLELNAVQHNPPGFPADEANSSPPLPGALSPLYGVPETNSPLGGKAGPLTKEKPKRNGGRGLEDVRPSVESLLDELESSVPSPVPAITVNQGEMSSPQRVTSTQQQTRISASSATRELDELMASLSDFKFM
# B2: paxillin Construct C35_3 (105-189) (domain or fragment, human, UniProt P49023-2 105-189, looked up)
# chain: GSPCSRVGEEEHVYSFPNKQKSAEPSPTVMSTSLGSNLSELDRLLLELNAVQHNPPGFPADEANSSPPLPGALSPLYGVPETNSP
# notes: human paxillin residues 105-189; Cloned into pET28a; source: E. coli BL21DE3, purified
# B3: paxillin Construct C35_1 (54-189) (domain or fragment, human, UniProt P49023-2 54-189, looked up)
# chain: SSEALNGTILDPLDQWQPSSSRFIHQQPQSSSPVYGSSAKTSSVSNPQDSVGSPCSRVGEEEHVYSFPNKQKSAEPSPTVMSTSLGSNLSELDRLLLELNAVQHNPPGFPADEANSSPPLPGALSPLYGVPETNSP
# notes: human paxillin residues 54-189; Cloned into pET28a; source: E. coli BL21DE3, purified
# B4: paxillin Construct C35_2 (79-189) (domain or fragment, human, UniProt P49023-2 79-189, looked up)
# chain: QQPQSSSPVYGSSAKTSSVSNPQDSVGSPCSRVGEEEHVYSFPNKQKSAEPSPTVMSTSLGSNLSELDRLLLELNAVQHNPPGFPADEANSSPPLPGALSPLYGVPETNSP
# notes: human paxillin residues 79-189; Cloned into pET28a; source: E. coli BL21DE3, purified
# Legend:
# [1] = molecular target: T1, GST fusion of the FAT (focal adhesion …); experiment: BLI; GST-FAT immobilised on Anti-GST biosensors (20 μg/ml in PBS), paxillin constructs as analytes in PBS with Tween 20 (0.05%) and BSA (1%), Octet RED96, global fitting (B2 1:1 model, C35_1 to C35_3 2:1 model); details: both partners purified
# [2] = molecular target: T1, GST fusion of the FAT (focal adhesion …); experiment: as above; details: both partners purified; remark: listed apart in the source
Binder,stoichiometry N [1],Kd [2],koff [2],kon [2]
B1,1 construct per FAT,0.0361 µM,0.00171 s⁻¹,47500 M⁻¹ s⁻¹
B2,2 construct per FAT,1.45 µM,0.106 s⁻¹,72900 M⁻¹ s⁻¹
B3,2 construct per FAT,5.39 µM,0.121 s⁻¹,22500 M⁻¹ s⁻¹
B4,2 construct per FAT,16.9 µM,0.164 s⁻¹,9710 M⁻¹ s⁻¹

# — publication PMC4771712, “Deciphering Mode of Action of Functionally Important Regions in the Intrinsically Disordered Paxillin (Residues 1-313) Using Its Interaction with FAT (Focal Adhesion Targeting Domain of Focal Adhesion Kinase)” (PLoS ONE, 2016)
